What was measured:
[1] = target: wild-type Aplysia Kv1 voltage-gated potassium channel subunit, full-length (aKv1/FL) (Aplysia)
[2] = target: wild-type Aplysia Kv1 voltage-gated potassium channel subunit, full-length (aKv1/FL) (Aplysia); remark: listed apart in the source

suppression of the fast inactivating aKv1/FL whole-cell current in co-transfected CHO cells after 1.5 hours of blue light [1]: 70% | reduction in current density at +80 mV in cerebellar granule cells electroporated with both constructs, after 1.5 hours of blue light [2]: 80%
Substance: Opto-aKv1/SL/V400D (dominant-negative, short-length Opto-aKv1 subunit: aKv1 N-terminus, VfAu1 LOV domain, aKv1 from the T1 domain on, pore mutation V400D)
